# Test results reported in paper PMC6892545.
# Target: Ulp1^403-621-C580S, on CNBr-activated resin (S. cerevisiae) (UniProt Q02724)
# Experiment: pull-down; Ulp1^403-621-C580S on CNBr-activated resin incubated with yeast whole cell extract, 2 h at 4 °C, PBSN buffer; anti-Smt3 Western blot
# Sequence of UniProt Q02724 (Q02724 403-621 C580S): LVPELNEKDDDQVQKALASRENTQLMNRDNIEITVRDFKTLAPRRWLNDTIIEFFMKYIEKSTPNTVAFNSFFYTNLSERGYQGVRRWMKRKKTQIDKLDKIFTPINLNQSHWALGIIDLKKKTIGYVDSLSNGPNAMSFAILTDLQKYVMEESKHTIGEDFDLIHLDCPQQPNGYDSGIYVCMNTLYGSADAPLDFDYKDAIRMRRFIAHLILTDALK
substance,measurement,value
"Smt3 (yeast SUMO), as endogenous SUMO conjugates in yeast cell extract (from UniProt Q12306 1-101) (natural protein)",percent of SUMO conjugates recovered on the resin,50%
